Values of other authors in PMC4191058.

Target: NS1 (Influenza A virus) (UniProt Q8QPI8)

NS1 (from UniProt Q8QPI8)
Kd: 90 µM
